According to PMC3836730, “Molecular Cloning and Characterization of Taurocyamine Kinase from Clonorchis sinensis: A Candidate Chemotherapeutic Target” (PLoS Neglected Tropical Diseases, 2013):

Legend:
Experiment in all cases: purified protein
Assay type in all cases: biochemical, Clonorchis sinensis
N=C(N)NCCS(=O)(=O)O = settings: co-substrate ATP, Mg-acetate, Tris-HCl pH 8, 25°C
purified protein [1] = substrate: N=C(N)NCCS(=O)(=O)O; settings: co-substrate ATP, Mg-acetate, Tris-HCl pH 8, 25°C; remark: listed apart in the source
purified protein [2] = substrate: Nc1ncnc2c1ncn2[C@@H]1O[C@H](COP(=O)(O)OP(=O)(O)OP(=O)(O)O)[C@@H](O)[C@H]1O; settings: co-substrate taurocyamine, Mg-acetate, Tris-HCl pH 8, 25°C

Row | Molecule | Km (N=C(N)NCCS(=O)(=O)O) [µM] | kcat (N=C(N)NCCS(=O)(=O)O) [s⁻¹] | kcat/Km (N=C(N)NCCS(=O)(=O)O) [M⁻¹ s⁻¹] | Km (purified protein [1]) [µM] | kcat (purified protein [1]) [s⁻¹] | kcat/Km (purified protein [1]) [M⁻¹ s⁻¹] | Km (purified protein [2]) [µM] | kcat (purified protein [2]) [s⁻¹]
1 | C. sinensis TK D1 (CsTK D1) (Clonorchis sinensis; I60A) | 510 ± 70 | 22.43 ± 0.38 | 44000 |  |  |  |  | 
2 | C. sinensis TK D1 (CsTK D1) (Clonorchis sinensis; R58A) | 850 ± 60 | 33.03 ± 1.14 | 38900 |  |  |  |  | 
3 | C. sinensis TK D1 (CsTK D1) (Clonorchis sinensis; Y84A) | 820 ± 70 | 32.90 ± 1.54 | 40100 |  |  |  |  | 
4 | C. sinensis TK D2 (CsTK D2) (Clonorchis sinensis; H421A) | 360 ± 70 | 5.92 ± 1.23 | 15600 |  |  |  |  | 
5 | C. sinensis TK D2 (CsTK D2) (Clonorchis sinensis; I423A) | 300 ± 50 | 6.46 ± 0.45 | 21500 |  |  |  |  | 
6 | C. sinensis TK D2 (CsTK D2) (Clonorchis sinensis; Y447A) | 3640 ± 210 | 6.45 | 1770 |  |  |  |  | 
7 | C. sinensis TK D2 (CsTK D2) (Clonorchis sinensis; Y447R) | 3010 ± 250 | 0.99 ± 0.52 | 330 |  |  |  |  | 
8 | C. sinensis TK whole (CsTK D1D2) (Clonorchis sinensis; R58A) | 450 ± 190 | 15.00 ± 0.25 | 33300 |  |  |  |  | 
9 | C. sinensis TK D1 (CsTK D1) (Clonorchis sinensis) (protein, truncated N-terminal domain D1 (360 residues of the 717-residue two-domain protein, 40,573 Da); MBP fusion (pMAL-c2), E. coli TB1, amylose resin; about 80 kDa with MBP) MQVEPLKSLQQKIVNDEANRSFTKKHLTNRIVDLYADKKTSFGGSLAQCVSHNARNPRCILPRACDLDAYEAFREFFDAVIIDYHKVKGDKITHPKSDFGDLKSLNFKDLNADGNMVVSTRVRLGRTVAGYGFCPTISNEQRLELEKKISTALKDLSGEFKGTYYPLTGMKEEDRKKLVEKHFLFRDDDSVLRDAGGYIDWPNGRGIFINEKENFLVWVNEEDHIRVISMQKGGDLIAVYKRLANAISELGKSLTFATNDRFGFITFCPSNLGTTLRASVHARVPYLSALPNFEQICEKYNIQARGTHGEHTASVGGVYDLSNKRRLGLTEIEAVTEMYNGVQALLDLEKQLAAYNKDAP |  |  |  | 350 ± 10 | 22.59 ± 0.15 | 54500 | 460 ± 120 | 22.59 ± 0.15
10 | C. sinensis TK whole (CsTK D1D2) (Clonorchis sinensis) (protein, full-length contiguous two-domain enzyme, 717 residues, 80,274 Da; MBP fusion (pMAL-c2), E. coli TB1, amylose resin; 120 kDa with MBP) MQVEPLKSLQQKIVNDEANRSFTKKHLTNRIVDLYADKKTSFGGSLAQCVSHNARNPRCILPRACDLDAYEAFREFFDAVIIDYHKVKGDKITHPKSDFGDLKSLNFKDLNADGNMVVSTRVRLGRTVAGYGFCPTISNEQRLELEKKISTALKDLSGEFKGTYYPLTGMKEEDRKKLVEKHFLFRDDDSVLRDAGGYIDWPNGRGIFINEKENFLVWVNEEDHIRVISMQKGGDLIAVYKRLANAISELGKSLTFATNDRFGFITFCPSNLGTTLRASVHARVPYLSALPNFEQICEKYNIQARGTHGEHTASVGGVYDLSNKRRLGLTEIEAVTEMYNGVQALLDLEKQLAAYNKDAPAGVMPVEPLTYLSHLLEAADPVKNYTRKHLTPEIIKKYDGVRTTHGATLAHMVRNGAYNPHSICPRTGEAECYTKFVDYLDAVILDYHGVSDPAFKHPPPTFGDLNNLPFGDVDPEGKFVVSTRVRVGRSVDGFLFSTIMSKQDRLDLETKVSTALKSLTGDHAGSYYPLANMSEATRKQLVEDHFLFKNDDPVLRDAGGYRDWPHGRGIFHNANKTFLVWLCEEDHMRIISMQKGGDLAAVYKRLIQGIQAIEKTLPFAHSDKYGYITCCPSNLGTTMRASVLLKIPKLSAQKAKLDEVCAKYRLQARGLHGEHTESPEGIHDISNKRRLGLTELEAAKEMADGVAQMIAIEKSLP |  |  |  | 490 ± 20 | 17.78 ± 0.98 | 36300 | 780 ± 70 | 17.78 ± 0.98
11 | C. sinensis TK D2 (CsTK D2) (Clonorchis sinensis) (protein, truncated C-terminal domain D2 (357 residues of the 717-residue two-domain protein, 39,719 Da); MBP fusion (pMAL-c2), E. coli TB1, amylose resin; about 80 kDa with MBP) AGVMPVEPLTYLSHLLEAADPVKNYTRKHLTPEIIKKYDGVRTTHGATLAHMVRNGAYNPHSICPRTGEAECYTKFVDYLDAVILDYHGVSDPAFKHPPPTFGDLNNLPFGDVDPEGKFVVSTRVRVGRSVDGFLFSTIMSKQDRLDLETKVSTALKSLTGDHAGSYYPLANMSEATRKQLVEDHFLFKNDDPVLRDAGGYRDWPHGRGIFHNANKTFLVWLCEEDHMRIISMQKGGDLAAVYKRLIQGIQAIEKTLPFAHSDKYGYITCCPSNLGTTMRASVLLKIPKLSAQKAKLDEVCAKYRLQARGLHGEHTESPEGIHDISNKRRLGLTELEAAKEMADGVAQMIAIEKSLP |  |  |  | 480 ± 50 | 4.50 ± 0.11 | 9380 | 750 ± 130 | 4.50 ± 0.11
